Results taken from patent publication US12281340B2, “Method of producing N-acyl-amino group-containing compound” (AJINOMOTO CO., INC., priority 2018, dated 2025).

B1: OsGH3-8: probable indole-3-acetic acid-amido synthetase GH3.8 from Oryza sativa, expressed in E. coli with N-terminal His-tag (protein, listed as Oryza sativa)
chain: MAVMTDVSTTGTALRTPAAGAVKEGDVEKLRFIDEMTTNVDAVQERVLGEILGRNAGTEYLTKCGLDGATDRAAFRAKVPVVSYDDLQPYIQRIANGDRSPILSTHPVSEFLTSSGTSAGERKLMPTIMDELDRRQLLYSLLMPVMNLYVPGLDKGKGLYFLFVKSETKTPGGLTARPVLTSYYKSDHFKNRPYDPYHNYTSPTAAILCADAFQSMYAQMVCGLCQRNDVLRLGAVFASGLLRAIRFLQLNWEQLADDIESGELTPRVTDPSVREAVAAILLPDPELAKLIRAECSKGDWAGIITRVWPNTKYLDVIVTGAMAQYIPTLEFYSGGLPMACTMYASSECYFGLNLRPMCDPSEVSYTIMPNMGYFEFLPVDETGAASGDATQLVDLARVEVGREYELVITTYAGLNRYRVGDVLRVTGFHNAAPQFRFVRRKNVLLSIESDKTDEAELQRAVERASALLRPHGASVVEYTSQACTKRIPGHYVIYWELLTKGAGATVVDADTLGRCCLEMEEALNTVYRQSRVADGSIGPLEIRVVRPGTFEELMDYAISRGASINQYKVPRCVTFPPIVELLDSRVVSSHFSPALPHWTPARRSE
modifications: N-terminal His-tag
notes: probable indole-3-acetic acid-amido synthetase GH3.8 from Oryza sativa, expressed in E. coli with N-terminal His-tag
B2: AtGH3-5: indole-3-acetic acid-amido synthetase GH3.5 from Arabidopsis thaliana, His-tagged (protein, listed as Arabidopsis thaliana)
chain: MPEAPKKESLEVFDLTLDQKNKQKLQLIEELTSNADQVQRQVLEEILTRNADVEYLRRHDLNGRTDRETFKNIMPVITYEDIEPEINRIANGDKSPILSSKPISEFLTSSGTSGGERKLMPTIEEELDRRSLLYSLLMPVMSQFVPGLENGKGMYFLFIKSESKTPGGLPARPVLTSYYKSSHFKERPYDPYTNYTSPNETILCSDSYQSMYSQMLCGLCQHQEVLRVGAVFASGFIRAIKFLEKHWIELVRDIRTGTLSSLITDPSVREAVAKILKPSPKLADFVEFECKKSSWQGIITRLWPNTKYVDVIVTGTMSQYIPTLDYYSNGLPLVCTMYASSECYFGVNLRPLCKPSEVSYTLIPSMAYFEFLPVHRNNGVTNSINLPKALTEKEQQELVDLVDVKLGQEYELVVTTYAGLCRYRVGDLLRVTGFKNKAPQFSFICRKNVVLSIDSDKTDEVELQNAVKNAVTHLVPFDASLSEYTSYADTSSIPGHYVLFWELCLDGNTPIPPSVFEDCCLAVEESFNTVYRQGRVSDKSIGPLEIKIVEPGTFDKLMDYAISLGASINQYKTPRCVKFAPIIELLNSRVVDSYFSPKCPKWVPGHKQWGSN
modifications: His-tag
notes: indole-3-acetic acid-amido synthetase GH3.5 from Arabidopsis thaliana, His-tagged
B3: AtGH3-12: 4-substituted benzoates-glutamate ligase GH3.12 from Arabidopsis thaliana, His-tagged (protein, listed as Arabidopsis thaliana)
chain: MKPIFDINETFEKQLKDLTSNVKSIQDNLLEEIITPNTKTEYLQRFLIDRFDKELFKKNVPIVSYEDIKPYLDRVVNGESSDVISARTITGFLLSSGTSGGAQKMMPWNNKYLDNLTFIYDLRMQVITKHVKGVEEGKGMMFLFTKQESMTPSGLPARVATSSYFKSDYFKNRPSNWYYSYTSPDEVILCPNNTESLYCHLLCGLVQRDEVVRTGSIFASVMVRAIEVLKNSWEELCSNIRSGHLSNWVTDLGCQNSVSLVLGGPRPELADTIEEICNQNSWKGIVKRLWPNTKYIETVVTGSMGQYVPMLNYYCNDLPLVSTTYGSSETTFGINLDPLCKPEDVSYTFMPNMSYFEFIPMDGGDKNDVVDLEDVKLGCTYEPVVTNFAGLYRMRVGDIVLVTGFYNNAPQFKFVRRENVVLSIDSDKTNEEDLFKAVSQAKLVLESSGLDLKDFTSYADTSTFPGHYVVYLEVDTKEGEEKETAQFELDEEALSTCCLVMEESLDNVYKRCRFKDGSIGPLEIRVVRQGTFDSLMDFFISQGASTGQYKTPRCIKSGKALQVLETCVVAKFFSI
modifications: His-tag
notes: 4-substituted benzoates-glutamate ligase GH3.12 from Arabidopsis thaliana, His-tagged

Test: Synthesis of N-caprinoyl-amino acid derivative, N-caprinoyl-D-amino acid and N-caprinoyl-peptide using purified acylamino acid synthetase, UPLC-MS detection
Format: biochemical
Parameters: key: +: Detected; −: Not detected
Conditions: substrates Carnosine and sodium caprate; +ATP
How it was run: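 Purified enzyme (50 μg/mL) was incubated with 5 mM sodium caprate, 5 mM amino acid derivative, D-amino acid or peptide, 10 mM ATP, 10 mM MgCl2 and 1 mM DTT in 50 mM Tris-HCl, pH 8.0, for 24 h at 25 °C. After acidic methanol stop, UPLC-MS looked for the mass of the N-caprinoyl product.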
In the case of B1, the “signal of molecular weight corresponding to N-caprinoyl compound” value (shortened to “signal … to N-caprinoyl compound”) is reported as “+”. For B2, the “signal … to N-caprinoyl compound” value was “+”. In the case of B3, the “signal … to N-caprinoyl compound” value is reported as “+”.

Same assay, conditions: substrates D-Ala and sodium caprate; +ATP
With B1 the “signal … to N-caprinoyl compound” value was “+”. For B2, the “signal … to N-caprinoyl compound” value was “+”. For B3, the “signal … to N-caprinoyl compound” value was “+”.

Same assay, conditions: substrates D-Asp and sodium caprate; +ATP
In the case of B1, the “signal … to N-caprinoyl compound” value is reported as “+”. With B2 the “signal … to N-caprinoyl compound” value was “+”. In the case of B3, the “signal … to N-caprinoyl compound” value is reported as “+”.

Same assay, conditions: substrates D-Cys and sodium caprate; +ATP
With B1 the “signal … to N-caprinoyl compound” value was “+”. With B2 the “signal … to N-caprinoyl compound” value was “+”. In the case of B3, the “signal … to N-caprinoyl compound” value is reported as “−”.

Same assay, conditions: substrates D-Glu and sodium caprate; +ATP
With B1 the “signal … to N-caprinoyl compound” value was “+”. With B2 the “signal … to N-caprinoyl compound” value was “+”. With B3 the “signal … to N-caprinoyl compound” value was “+”.

Same assay, conditions: substrates D-Ile and sodium caprate; +ATP
For B1, the “signal … to N-caprinoyl compound” value was “+”. With B2 the “signal … to N-caprinoyl compound” value was “+”. For B3, the “signal … to N-caprinoyl compound” value was “+”.

Same assay, conditions: substrates D-Lys and sodium caprate; +ATP
For B1, the “signal … to N-caprinoyl compound” value was “+”. With B2 the “signal … to N-caprinoyl compound” value was “+”. For B3, the “signal … to N-caprinoyl compound” value was “+”.

Same assay, conditions: substrates L-Asp-L-Phe and sodium caprate; +ATP
With B1 the “signal … to N-caprinoyl compound” value was “+”. In the case of B2, the “signal … to N-caprinoyl compound” value is reported as “+”. With B3 the “signal … to N-caprinoyl compound” value was “+”.

Same assay, conditions: substrates L-Gly-L-Gly and sodium caprate; +ATP
With B1 the “signal … to N-caprinoyl compound” value was “+”. In the case of B2, the “signal … to N-caprinoyl compound” value is reported as “+”. For B3, the “signal … to N-caprinoyl compound” value was “+”.

Same assay, conditions: substrates Sarcosine and sodium caprate; +ATP
With B1 the “signal … to N-caprinoyl compound” value was “+”. For B2, the “signal … to N-caprinoyl compound” value was “+”. With B3 the “signal … to N-caprinoyl compound” value was “+”.

Same assay, conditions: substrates Taurine and sodium caprate; +ATP
For B1, the “signal … to N-caprinoyl compound” value was “+”. With B2 the “signal … to N-caprinoyl compound” value was “+”. In the case of B3, the “signal … to N-caprinoyl compound” value is reported as “+”.

Test: Synthesis of N-acylamino acids from various fatty acids using purified acylamino acid synthetase, UPLC-MS detection
Format: biochemical
Parameters: key: +: Detected; −: Not detected
Conditions: substrates L-Asp and Capric acid
How it was run: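 Purified enzyme (200 μg/mL) with 5 mM amino acid, 5 mM sodium fatty acid (3 mM palmitate or stearate, plus 10% methanol), 10 mM ATP, 10 mM MgCl2, 1 mM DTT in 50 mM Tris-HCl pH 8.0, shaken 24 h at 25 °C. Amino acid varied by enzyme; product mass detected by UPLC-MS (ESI-negative).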
For B1, the “signal of molecular weight corresponding to N-acylamino acid” value (“signal … to N-acylamino acid” below) was “+”. In the case of B2, the “signal … to N-acylamino acid” value is reported as “+”. In the case of B3, the “signal … to N-acylamino acid” value is reported as “+”.

Same assay, conditions: substrates L-Asp and Caproic acid
For B1, the “signal … to N-acylamino acid” value was “+”. For B2, the “signal … to N-acylamino acid” value was “+”. With B3 the “signal … to N-acylamino acid” value was “+”.

Same assay, conditions: substrates L-Asp and Caprylic acid
With B1 the “signal … to N-acylamino acid” value was “+”. In the case of B2, the “signal … to N-acylamino acid” value is reported as “+”. With B3 the “signal … to N-acylamino acid” value was “+”.

Same assay, conditions: substrates L-Asp and Lauric acid
For B1, the “signal … to N-acylamino acid” value was “+”. With B2 the “signal … to N-acylamino acid” value was “+”. For B3, the “signal … to N-acylamino acid” value was “+”.

Same assay, conditions: substrates L-Asp and Linoleic acid
In the case of B1, the “signal … to N-acylamino acid” value is reported as “−”. In the case of B2, the “signal … to N-acylamino acid” value is reported as “−”. For B3, the “signal … to N-acylamino acid” value was “+”.

Same assay, conditions: substrates L-Asp and Palmitic acid
With B1 the “signal … to N-acylamino acid” value was “+”. With B2 the “signal … to N-acylamino acid” value was “+”. In the case of B3, the “signal … to N-acylamino acid” value is reported as “+”.

Same assay, conditions: substrates L-Asp and myristic acid
For B1, the “signal … to N-acylamino acid” value was “+”. For B2, the “signal … to N-acylamino acid” value was “+”. For B3, the “signal … to N-acylamino acid” value was “+”.
